We go through four molecules from patent US20130183348A1, “Inhibitor of HMGB Protein-Mediated Immune Response Activation, and Screening Method” (JAPAN SCIENCE AND TECHNOLOGY AGENCY, published 2013).

In data set [1] the target is T1, HMGB1 (Mus musculus, UniProt P63158 SEQ:1-215). The data set is described as follows: competition; competes biotin-B-DNA; higher competitivity than PS. As to conditions: tags: GST-tagged, tag removed with thrombin (pGEX4T3). The method, then: (§1) In vitro pull-down assay was carried out as follows. At first, a recombinant of HMGB1, 2, or 3 was treated in the presence or absence of a competitor at room temperature for 30 minutes. The supernatant was mixed with a biotin-labeled B-DNA at 4° C. for 30 minutes, then streptavidin-bound magnetic beads (Invitrogen Corporation) were added thereto, and the mixture was incubated in a binding buffer (50 mM Tris-Cl, pH 7.5, 150 mM NaCl, 1 mM EDTA, 1% NP-40, 100 μg/mL leupeptin, 1 mM PMSF, 1 mM Na₃VO₄). Subsequently, the mixture was sufficiently washed with a binding buffer, was separated by SDS-PAGE, and then was immunoblotted using an anti-HMGB1, 2, or 3 antibody.
As in Example 13, in vitro pull-down assay using recombinant HMGB1 and biotin-bound B-DNA was performed for 0.1, 0.5, 2.5, 12.5 and 62.5 μg/mL of CpG-B(S), CpG-Rev(S), CpG-M(S) and PS, as competitors.

Data set [2] deals with T1, HMGB1. The data set is described as follows: competition; competes biotin-CpG-B(S) equally to unlabeled CpG-B(S); higher competitivity than PS. Particulars: tags: GST-tagged, tag removed with thrombin (pGEX4T3). As for the experimental part: (§2) In more detail, a final concentration of 0, 0.1, 0.5, 2.5, 12.5, or 62.5 μg/mL of CpG-B(S) as a competitor was added to 2 μg of a recombinant HMGB1 protein and a final concentration of 2.5 μg/mL of biotin-labeled B-DNA, and they were incubated (room temperature, 30 minutes). The biotin-labeled B-DNA was pulled down with streptavidin-bound magnetic beads, and HMGB1 in the coprecipitated protein was detected by Western blotting using an anti-HMGB1 antibody. In addition, a final concentration of 0, 1, 2, 4, 8, 16, or 32 μM of a competitor: CpG-B(S) not labeled with biotin, CpG-M(S), ODN(PS) composed of only a phosphorothioate backbone and not having any base, or ODN(CpG-M) having the same sequence as that of CpG-M(S) and a phosphodiester backbone, was added to 2 μg of the recombinant HMGB1 protein and a final concentration of 0.2 μM of biotin-labeled CpG-B(S). The biotin-labeled CpG-B was pulled down with streptavidin-bound magnetic beads, and HMGB1 in the coprecipitated protein was detected by Western blotting using an anti-HMGB1 antibody.

Data set [3] addresses T2, CFP-tagged RIG-I (CFP-RIG-I) (mouse, UniProt Q6Q899 1-926).
T2 construct: Expressed in HeLa cells from the pCAGGS-CFP vector; not shown: CFP tag from the pCAGGS-CFP vector
T2 sequence (looked up): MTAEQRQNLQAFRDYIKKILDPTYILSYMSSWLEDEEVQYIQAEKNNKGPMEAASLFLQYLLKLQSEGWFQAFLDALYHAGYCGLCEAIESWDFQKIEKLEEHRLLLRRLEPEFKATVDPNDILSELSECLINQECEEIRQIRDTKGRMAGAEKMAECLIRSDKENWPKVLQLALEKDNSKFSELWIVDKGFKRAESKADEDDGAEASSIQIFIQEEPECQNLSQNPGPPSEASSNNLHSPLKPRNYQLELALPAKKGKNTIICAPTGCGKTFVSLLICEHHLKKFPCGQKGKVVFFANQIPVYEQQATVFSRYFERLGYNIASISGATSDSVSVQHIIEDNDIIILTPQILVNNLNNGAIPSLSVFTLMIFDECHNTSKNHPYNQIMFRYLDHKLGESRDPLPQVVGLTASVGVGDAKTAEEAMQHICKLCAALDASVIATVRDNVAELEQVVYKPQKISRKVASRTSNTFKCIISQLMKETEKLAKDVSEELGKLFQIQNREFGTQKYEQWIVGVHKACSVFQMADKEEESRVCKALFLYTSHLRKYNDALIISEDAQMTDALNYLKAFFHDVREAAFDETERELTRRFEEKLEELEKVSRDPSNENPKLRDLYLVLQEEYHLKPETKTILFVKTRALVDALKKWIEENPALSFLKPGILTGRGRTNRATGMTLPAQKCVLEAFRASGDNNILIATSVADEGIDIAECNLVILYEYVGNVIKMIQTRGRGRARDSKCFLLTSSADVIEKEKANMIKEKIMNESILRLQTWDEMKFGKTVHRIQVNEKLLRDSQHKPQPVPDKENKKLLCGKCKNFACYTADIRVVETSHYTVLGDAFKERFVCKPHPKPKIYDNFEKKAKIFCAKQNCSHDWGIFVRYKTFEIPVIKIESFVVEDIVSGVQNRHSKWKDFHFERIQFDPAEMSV
The experiment in a line: confocal fluorescence microscopy of HeLa cells cotransfected with CFP-RIG-I and YFP-HMGB1 and stimulated with poly(I:C); the filing's interpretation of co-localisation. As for the experimental part:
Intracellular localization of HMGB1 and RIG-I was investigated. Expression vectors of CFP-tagged RIG-I (CFP-RIG-I) and YFP-tagged HMGB1 (YFP-HMGB1) were introduced, together with RFP-tagged Rab5 (RFP-Rab5) or without RFP-Rab5, into HeLa cells. At 16 hours after the gene transfer, the cells were stimulated with poly(I:C) for 2 hours, and fluorescence microscopic observation was performed using a laser scanning confocal microscope.

Data set [4] deals with T1, HMGB1. The data set is described as follows: pulldown; CpG-B ODN competing biotin-B-DNA; recombinant HMGB1 or 2 used, protein of this panel not specified. Particulars: tags: GST-tagged, tag removed with thrombin (pGEX4T3). The method, then: as §1
Binding of HMGB to DNA, RNA and base-free phosphorothioate deoxyribose homopolymer (PS) was investigated. In vitro pull-down assay using recombinant HMGB1 or 2 and biotin-bound B-DNA was performed in the presence of 1, 3, 10, 30 and 100 μg/mL of unlabeled nucleic acid (B-DNA, poly(I:C), poly(U), bovine thymus DNA, or microbial DNA), R837 (1, 3, 10, 30 and 100 μg/mL) (upper and middle panels), base-free natural deoxyribose homopolymer (PD: 0.01, 0.1, 0.3, 1 and 3 μg/mL, lower panel), or base-free phosphorothioate deoxyribose homopolymer (PS: 0.01, 0.1, 0.3, 1 and 3 μg/mL, lower panel). In the lower panel, unlabeled B-DNA or CpG-B ODN having stepwise increasing concentrations (0.1, 0.3, 1 and 3 μg/mL) was also used. […]

In data set [5] the target is T1, HMGB1. The data set is described as follows: pulldown; biotin-CpG-B(S) 0.2 uM pulled down HMGB1; also completely inhibited B-DNA binding. As to conditions: tags: GST-tagged, tag removed with thrombin (pGEX4T3). As for the experimental part:
as §2

On to TCCATGAGCTTCCTGATGCT (ssDNA, PS all linkages) [CpG-Rev(S)], for which the binding result in data set [1] is reported as “binds”. In the case of TCCATGAGGTTCCTGATGCT (ssDNA, PS all linkages) [CpG-M(S)], in data set [2], the binding result was “binds”.

B1: YFP-tagged HMGB1 (YFP-HMGB1) (other, mouse, UniProt P63158 1-215, looked up)
chain: MGKGDPKKPRGKMSSYAFFVQTCREEHKKKHPDASVNFSEFSKKCSERWKTMSAKEKGKFEDMAKADKARYEREMKTYIPPKGETKKKFKDPNAPKRPPSAFFLFCSEYRPKIKGEHPGLSIGDVAKKLGEMWNNTAADDKQPYEKKAAKLKEKYEKDIAAYRAKGKPDAAKKGVVKAEKSKKKKEEEDDEEDEEDEEEEEEEEDEDEEEDDDDE
notes: Expressed in HeLa cells from the pCAGGS-YFP vector; not shown: YFP tag from the pCAGGS-YFP vector
Turning to B1, in data set [3], the binding result is “binds”. For TCCATGACGTTCCTGATGCT (ssDNA, PS all linkages) [CpG-B(S)], the binding result in data set [4] and in data set [5] was “binds” in each case.
